Measurements from publication PMC2765501.

Target: C22-pT peptide (HIV-1 gp41 MPER residues 662-683 with a C-terminal GCN4-pT isoleucine-zipper motif) (HIV-1)
Assay: AUC

Substance: C22-pT peptide (HIV-1 gp41 MPER residues 662-683 with a C-terminal GCN4-pT isoleucine-zipper motif)
- stoichiometry N: 3
